{
  "source": "paper PMC8824505",
  "about": "“Complexes of Ghrelin GHS-R1a, GHS-R1b, and Dopamine D1 Receptors Localized in the Ventral Tegmental Area as Main Mediators of the Dopaminergic Effects of Ghrelin” (The Journal of Neuroscience, 2022)",
  "binders": {"B1": {"name": "GHS-R1a fused to GFP2 (GHS-R1a-GFP2) (receptor, human, UniProt Q92847-1 1-366, looked up)", "chain": "MWNATPSEEPGFNLTLADLDWDASPGNDSLGDELLQLFPAPLLAGVTATCVALFVVGIAGNLLTMLVVSRFRELRTTTNLYLSSMAFSDLLIFLCMPLDLVRLWQYRPWNFGDLLCKLFQFVSESCTYATVLTITALSVERYFAICFPLRAKVVVTKGRVKLVIFVIWAVAFCSAGPIFVLVGVEHENGTDPWDTNECRPTEFAVRSGLLTVMVWVSSIFFFLPVFCLTVLYSLIGRKLWRRRRGDAVVGASLRDQNHKQTVKMLAVVVFAFILCWLPFHVGRYLFSKSFEPGSLEIAQISQYCNLVSFVLFYLSAAINPILYNIMSKKYRVAVFRLLGFEPFSQRKLSTLKDESSRAWTESSINT"}},
  "biological_target": "dopamine D1 receptor (D1R) (UniProt P21728 1-446)",
  "sequence (P21728 whole entry)": "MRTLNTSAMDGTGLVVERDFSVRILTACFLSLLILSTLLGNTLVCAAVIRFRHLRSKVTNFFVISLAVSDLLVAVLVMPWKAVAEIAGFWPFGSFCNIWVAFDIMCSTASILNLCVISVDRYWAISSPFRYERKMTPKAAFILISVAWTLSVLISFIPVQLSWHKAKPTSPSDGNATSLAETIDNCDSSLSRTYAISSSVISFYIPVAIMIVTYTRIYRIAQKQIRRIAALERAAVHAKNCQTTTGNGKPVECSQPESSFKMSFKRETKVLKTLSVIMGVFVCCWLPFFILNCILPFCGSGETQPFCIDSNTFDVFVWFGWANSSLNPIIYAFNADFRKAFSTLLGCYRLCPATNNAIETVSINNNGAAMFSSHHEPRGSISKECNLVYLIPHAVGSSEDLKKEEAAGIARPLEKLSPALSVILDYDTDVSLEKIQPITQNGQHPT",
  "assay": "cell-based or functional assay",
  "data": [
    {"binder": "B1", "values": [
      {"measurement": "ghrelin-induced cAMP accumulation in HEK293T cells with GHS-R1a, D1R and increasing GHS-R1b cDNA; increase versus control at GHS-R1b/GHS-R1a cDNA ratios of 0, 0.3, 1 and 2 (26%, 72%, 46% and 15%)", "value": 72, "unit": "% increase versus control"}
    ]}
  ]
}
